Assay results taken from patent US20160362464A1 (University of California, published 2016).

B1: His-Gαi3 (GDP-loaded) (other, rat, UniProt P08753 1-354, looked up)
chain: MGCTLSAEDKAAVERSKMIDRNLREDGEKAAKEVKLLLLGAGESGKSTIVKQMKIIHEDGYSEDECKQYKVVVYSNTIQSIIAIIRAMGRLKIDFGEAARADDARQLFVLAGSAEEGVMTSELAGVIKRLWRDGGVQACFSRSREYQLNDSASYYLNDLDRISQTNYIPTQQDVLRTRVKTTGIVETHFTFKELYFKMFDVGGQRSERKKWIHCFEGVTAIIFCVALSDYDLVLAEDEEMNRMHESMKLFDSICNNKWFTDTSIILFLNKKDLFEEKIKRSPLTICYPEYTGSNTYEEAAAYIQCQFEDLNRRKDTKEVYTHFTCATDTKNVQFVFDAVTDVIIKNNLKECGLY
notes: also called recombinant His-Gαi3; not shown: His tag
B3: His-DAPLE-CT (aa 1650-2028) (other)
chain: GTAPPYVGVRPCSASPSSEMVTLEEFLEESNRSSPTHDTPSCRDDLLSDYFRKASDPPAIGGQPGPPAKKEGAKMPTNFVAPTVKMAAPTSEGRPLKPGQYVKPNFRLTEAEAPPSVAPRQAQPPQSLSLGRPRQAPVPPASHAPASRSASLSRAFSLASADLLRASGPEACKQESPQKLGAPEALGGRETGSHTLQSPAPPSSHSLARERTPLVGKAGSSCQGPGPRSRPLDTRRFSLAPPKEERLAPLHQSATAPAIATAGAGAAAAGSGSNSQLLHFSPAAAPAARTKPKAPPRSGEVATITPVRAGLSLSEGDGVPGQGCSEGLPAKSPGRSPDLAPHLGRALEDCSRGSVSKSSPASPEPGGDPQTVWYEYGCV
notes: Recombinant, purified from E. coli; also called His-DAPLE-CT WT; DAPLE-CT WT; not shown: His tag and vector residues of pET28b

Columns and labels:
GST-DAPLE-CT = molecular target: T1, GST-DAPLE-CT (human, UniProt Q9P219 1650-2028); assay: GST pulldown with 0.01-3 µM His-Gαi3, band intensities fitted to a one-site binding curve (FIG. 1F)
T1 construct: also called GST-DAPLE-CT WT; not shown: glutathione S-transferase tag of the pGEX-4T vector
T1 sequence: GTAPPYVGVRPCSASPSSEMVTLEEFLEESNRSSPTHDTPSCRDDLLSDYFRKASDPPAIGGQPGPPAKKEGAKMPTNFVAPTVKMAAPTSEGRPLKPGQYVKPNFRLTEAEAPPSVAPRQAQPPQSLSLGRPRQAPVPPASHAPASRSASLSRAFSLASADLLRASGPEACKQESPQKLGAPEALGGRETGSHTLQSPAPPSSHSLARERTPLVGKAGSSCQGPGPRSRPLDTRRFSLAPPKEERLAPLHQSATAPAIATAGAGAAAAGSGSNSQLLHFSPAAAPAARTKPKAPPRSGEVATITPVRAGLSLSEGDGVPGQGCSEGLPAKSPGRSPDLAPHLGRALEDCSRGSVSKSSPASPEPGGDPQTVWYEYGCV

GST-FZD7-CT = molecular target: T2, GST-FZD7-CT (UniProt P08515 1-218 = GST); assay: GST-FZD7-CT pulldown of His-Gαi3 with His-DAPLE-CT WT against His-Gαi3 alone (FIG. 4E)
T2 construct: Immobilized on glutathione beads directly from bacterial lysates; also called GST-FZD7R-CT; Fzl17-CT
T2 sequence (P08515 whole entry): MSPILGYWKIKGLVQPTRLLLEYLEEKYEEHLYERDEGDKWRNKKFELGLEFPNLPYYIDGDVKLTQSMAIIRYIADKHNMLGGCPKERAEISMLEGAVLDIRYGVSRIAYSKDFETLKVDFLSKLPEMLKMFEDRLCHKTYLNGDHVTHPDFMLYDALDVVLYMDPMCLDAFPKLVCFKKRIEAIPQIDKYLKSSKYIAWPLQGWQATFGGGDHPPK

[1] = molecular target: T3, myc-DAPLE full length F1675A (human, UniProt Q9P219 1-2028); assay: co-immunoprecipitation with anti-FLAG mAb from Cos7 cells (FIG. 2E)
T3 construct: Expressed in Cos7 cells; used as cell lysate; also called myc-DAPLE FA; DAPLE-FA; not shown: N-terminal myc tag of myc-pcDNA 3.1 (+)

His-Gαi3 (GDP-loaded) [2] = molecular target: B1; assay: cell-based or functional assay
[3] = molecular target: T4, GST-Gαi3 preloaded with GDP (inactive) (rat, UniProt P08753 1-354); assay: displacement of Gβγ from preformed GST-Gαi3·Gβγ complexes, immunoblot fitted to a single-site competition curve (FIG. 3C)
T4 construct: Immobilized on glutathione beads; Same polypeptide as m11, other nucleotide state; also called GST-Gαi3 WT; not shown: glutathione S-transferase tag of the pGEX-4T-1 vector
Excerpt: FIGS. 3A-3J. DAPLE's GBA motif triggers the release of ‘free’ Gβγ subunits, which in turn enhance Rac1 and PI3K-Akt signaling. (A) DAPLE's GBA motif and Gβγ subunits are predicted to dock onto an overlapping binding site on Gαi. Binding areas (in red) for DAPLE (left) or Gβγ (right) on Gαi (solid grey) were extracted from a homology-based model of DAPLE-Gαi3 and the crystal structure of the Gαi1·Gβγ complex (PBD: 1GG2), respectively. (B, C) DAPLE displaces Gβγ subunits from Gαi3 via its GEF motif. GST-Gαi3·Gβγ preformed complexes immobilized on glutathione beads were incubated with increasing concentrations of His-DAPLE-CT WT or F1675A (FA). Bound proteins were analyzed by immunoblotting (B) and Gβγ binding data fitted to a single-site competition curve (C). Mean±S.E.M. of 3 independent experiments. […] Control (shLuc) or two clones of DAPLE-depleted HeLa cell lines (shDAPLE 1 and 2) (described in FIGS. 10A & 10B) were incubated in 2% serum media (D) or starved and treated (+) or not (β) with Wnt5a ([…]) for 5 min (E) and analyzed for Rac1 activation by pulldown assays using GST-PBD. […] DAPLE-depleted (shDAPLE 1) HeLa cells transiently transfected with myc-DAPLE-WT or FA were starved and stimulated with Wnt5a and analyzed for Rac1 activation as in E. (G, H) DAPLE's GBA motif is required for activation of PI3K-Akt signaling in HeLa cells, as determined by phosphorylation of Akt at 5473. […]

[4] = molecular target: B3; assay: GST pulldown, purified proteins, inactive or active conformations (FIG. 1H)
Description: Equal aliquots of lysates of HEK293 cells expressing Gαi3-FLAG were incubated with anti-FLAG mAb or control IgG and protein G beads. Immune complexes were analyzed for DAPLE and Gαi3 (FLAG) by immunoblotting (IB). Gβ was monitored as positive Gαi3-binding control. […] Resin-bound proteins were eluted, separated by SDS-PAGE and analyzed by Ponceau S-staining and immunoblotting (IB) with the indicated antibodies. No binding to GST alone was detected. […] No binding of myc-DAPLE or Gβ to GST alone was detected. […] Insert, Purified GST-DAPLE-CT and GST-GIV (aa 1671-1755, containing the GBA motif) immobilized on glutathione-agarose beads were incubated with increasing amounts (0.01-3 μM) of purified His-Gαi3 (GDP-loaded) and binding analyzed by immunoblotting as described in (D). No binding to GST alone was detected at the highest His-Gαi3 concentration tested. Graph, Gαi3 binding was quantified by measuring band intensities and data fitted to a single-site binding hyperbola (DAPLE=BLUE, GIV=RED) to determine the equilibrium dissociation constants (Kd). Mean±S.E.M of 4 independent experiments. (G) DAPLE binds to all three Gαi subunits. […] (H) DAPLE selectively binds to Gαi, but not Gao.

His-Gαi3 (GDP-loaded) [5] = molecular target: B1; assay: GST pulldown with 0.01-3 µM His-Gαi3, band intensities fitted to a one-site binding curve (FIG. 1F)

## B1
GST-DAPLE-CT
  Kd: 110 nM
GST-FZD7-CT
  fold increase of binding in the presence of DAPLE-CT WT: ~5 fold

B2: Gαi3-FLAG (other, rat, UniProt P08753 1-354, looked up)
chain: MGCTLSAEDKAAVERSKMIDRNLREDGEKAAKEVKLLLLGAGESGKSTIVKQMKIIHEDGYSEDECKQYKVVVYSNTIQSIIAIIRAMGRLKIDFGEAARADDARQLFVLAGSAEEGVMTSELAGVIKRLWRDGGVQACFSRSREYQLNDSASYYLNDLDRISQTNYIPTQQDVLRTRVKTTGIVETHFTFKELYFKMFDVGGQRSERKKWIHCFEGVTAIIFCVALSDYDLVLAEDEEMNRMHESMKLFDSICNNKWFTDTSIILFLNKKDLFEEKIKRSPLTICYPEYTGSNTYEEAAAYIQCQFEDLNRRKDTKEVYTHFTCATDTKNVQFVFDAVTDVIIKNNLKECGLY
notes: Expressed in HEK293 or Cos7 cells; immunoprecipitated with anti-FLAG mAb; also called FLAG-Gαi3; not shown: FLAG tag
[1]
  binding result: no binding

## B3
His-Gαi3 (GDP-loaded) [2]
  EC50 of the acceleration of Gαi3 steady-state GTPase activity: 250 nM
  rate of steady-state GTP hydrolysis of His-Gαi3: ~3 fold
[3]
  IC50: 160 nM

B4: GST-Gao (other, rat, UniProt P59215 1-354, looked up)
chain: MGCTLSAEERAALERSKAIEKNLKEDGISAAKDVKLLLLGAGESGKSTIVKQMKIIHEDGFSGEDVKQYKPVVYSNTIQSLAAIVRAMDTLGVEYGDKERKADSKMVCDVVSRMEDTEPFSAELLSAMMRLWGDSGIQECFNRSREYQLNDSAKYYLDSLDRIGAADYQPTEQDILRTRVKTTGIVETHFTFKNLHFRLFDVGGQRSERKKWIHCFEDVTAIIFCVALSGYDQVLHEDETTNRMHESLMLFDSICNNKFFIDTSIILFLNKKDLFGEKIKKSPLTICFPEYPGSNTYEDAAAYIQTQFESKNRSPNKEIYCHMTCATDTNNIQVVFDAVTDIIIANNLRGCGLY
notes: also called Gαo; not shown: glutathione S-transferase tag of the pGEX-4T-1 vector
[4]
  binding result: no binding

B5: GST-GIV (aa 1671-1755) (other, UniProt Q3V6T2 1671-1755, looked up)
chain: IKTGSPGSEVVTLQQFLEESNKLTSVQIKSSSQENLLDEVMKSLSVSSDFLGKDKPVSCGLARSVSGKTPGDFYDRRTTKPEFLR
notes: range 1671-1755; also called GST-GIV CT 1671-1755 aa; not shown: glutathione S-transferase tag
His-Gαi3 (GDP-loaded) [5]
  Kd: 240 nM
